# Measurements from publication PMC2950890 (Nature structural & molecular biology, 2010).
# B1: Escherichia coli RecC (natural protein)
# chain: MLRVYHSNRLDVLEALMEFIVERERLDDPFEPEMILVQSTGMAQWLQMTLSQKFGIAANIDFPLPASFIWDMFVRVLPEIPKESAFNKQSMSWKLMTLLPQLLEREDFTLLRHYLTDDSDKRKLFQLSSKAADLFDQYLVYRPDWLAQWETGHLVEGLGEAQAWQAPLWKALVEYTHQLGQPRWHRANLYQRFIETLESATTCPPGLPSRVFICGISALPPVYLQALQALGKHIEIHLLFTNPCRYYWGDIKDPAYLAKLLTRQRRHSFEDRELPLFRDSENAGQLFNSDGEQDVGNPLLASWGKLGRDYIYLLSDLESSQELDAFVDVTPDNLLHNIQSDILELENRAVAGVNIEEFSRSDNKRPLDPLDSSITFHVCHSPQREVEVLHDRLLAMLEEDPTLTPRDIIVMVADIDSYSPFIQAVFGSAPADRYLPYAISDRRARQSHPVLEAFISLLSLPDSRFVSEDVLALLDVPVLAARFDITEEGLRYLRQWVNESGIRWGIDDDNVRELELPATGQHTWRFGLTRMLLGYAMESAQGEWQSVLPYDESSGLIAELVGHLASLLMQLNIWRRGLAQERPLEEWLPVCRDMLNAFFLPDAETEAAMTLIEQQWQAIIAEGLGAQYGDAVPLSLLRDELAQRLDQERISQRFLAGPVNICTLMPMRSIPFKVVCLLGMNDGVYPRQLAPLGFDLMSQKPKRGDRSRRDDDRYLFLEALISAQQKLYISYIGRSIQDNSERFPSVLVQELIDYIGQSHYLPGDEALNCDESEARVKAHLTCLHTRMPFDPQNYQPGERQSYAREWLPAASQAGKAHSEFVQPLPFTLPETVPLETLQRFWAHPVRAFFQMRLQVNFRTEDSEIPDTEPFILEGLSRYQINQQLLNALVEQDDAERLFRRFRAAGDLPYGAFGEIFWETQCQEMQQLADRVIACRQPGQSMEIDLACNGVQITGWLPQVQPDGLLRWRPSLLSVAQGMQLWLEHLVYCASGGNGESRLFLRKDGEWRFPPLAAEQALHYLSQLIEGYREGMSAPLLVLPESGGAWLKTCYDAQNDAMLDDDSTLQKARTKFLQAYEGNMMVRGEGDDIWYQRLWRQLTPETMEAIVEQSQRFLLPLFRFNQS
# Target: T1, Escherichia coli RecB (E. coli, UniProt P08394 1-1180)
# T1 sequence: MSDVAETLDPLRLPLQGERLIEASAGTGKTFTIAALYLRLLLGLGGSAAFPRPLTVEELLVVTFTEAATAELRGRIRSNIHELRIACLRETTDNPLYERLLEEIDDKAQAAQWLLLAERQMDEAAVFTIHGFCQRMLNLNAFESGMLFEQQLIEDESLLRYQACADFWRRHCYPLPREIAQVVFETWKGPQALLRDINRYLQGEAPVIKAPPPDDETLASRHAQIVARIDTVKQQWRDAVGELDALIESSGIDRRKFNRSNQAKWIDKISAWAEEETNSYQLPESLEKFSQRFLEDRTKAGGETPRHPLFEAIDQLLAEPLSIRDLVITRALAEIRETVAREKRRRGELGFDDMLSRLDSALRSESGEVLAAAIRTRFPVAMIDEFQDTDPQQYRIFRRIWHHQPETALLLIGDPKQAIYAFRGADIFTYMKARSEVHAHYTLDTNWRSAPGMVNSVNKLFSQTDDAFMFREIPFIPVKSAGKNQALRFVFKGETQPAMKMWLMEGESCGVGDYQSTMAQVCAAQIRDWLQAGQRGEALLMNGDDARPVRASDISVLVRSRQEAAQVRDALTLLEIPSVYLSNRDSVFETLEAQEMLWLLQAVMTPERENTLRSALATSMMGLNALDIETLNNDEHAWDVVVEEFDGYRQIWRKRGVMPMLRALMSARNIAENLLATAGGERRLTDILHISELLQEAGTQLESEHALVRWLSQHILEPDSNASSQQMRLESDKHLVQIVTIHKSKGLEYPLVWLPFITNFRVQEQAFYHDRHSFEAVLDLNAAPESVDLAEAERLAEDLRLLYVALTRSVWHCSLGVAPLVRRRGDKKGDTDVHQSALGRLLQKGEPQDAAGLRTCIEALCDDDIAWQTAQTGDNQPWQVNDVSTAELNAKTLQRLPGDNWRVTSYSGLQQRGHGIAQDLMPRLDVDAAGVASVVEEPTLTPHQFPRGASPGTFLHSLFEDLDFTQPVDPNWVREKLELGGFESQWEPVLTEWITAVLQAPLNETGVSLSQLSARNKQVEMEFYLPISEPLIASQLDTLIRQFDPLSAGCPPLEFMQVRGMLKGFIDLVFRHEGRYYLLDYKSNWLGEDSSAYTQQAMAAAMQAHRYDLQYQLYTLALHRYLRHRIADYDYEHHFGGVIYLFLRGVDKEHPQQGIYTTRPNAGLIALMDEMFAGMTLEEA
# Assay: reconstitution of the complex from separately purified subunits
binder,measurement,value
B1,binding result,binds
